Molecular target: T1, FcγRIIb extracellular domain with C-terminal His tag (human, UniProt P31994 43-217)
T1 construct: extracellular domain; expressed in FreeStyle293 cells; analyte in the Biacore assay; also called FcgRIIb; 2b; not shown: His tag at the C terminus
T1 sequence (looked up): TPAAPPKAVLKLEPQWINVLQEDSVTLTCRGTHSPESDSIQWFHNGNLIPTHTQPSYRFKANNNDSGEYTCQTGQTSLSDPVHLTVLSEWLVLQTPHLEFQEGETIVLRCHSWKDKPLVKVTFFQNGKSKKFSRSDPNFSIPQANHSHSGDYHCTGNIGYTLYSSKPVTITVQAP
Test: SPR (Biacore), captured antibody, FcγRIIb analyte; binding relative to GpH7-A5/GpH7-B3/GpL16-k0 = 100

Row | Binder | He/Con_2b
1 | GpH7-A5/GpH7-B3 variant I332_09D/GpL16-k0 (antibody, human IgG1, kappa, heterodimerized; mutation in the B3 H chain only; also called He Ab I332_09D) heavy 1: not shown heavy 2: not shown light: DIVMTQSPLSLPVTPGEPASISCQASESLVHSNRNTYLHWYLQKPGQSPQLLIYKVSNRFSGVPDRFSGSGSGTDFTLKISRVEAEDVGVYYCSQNTHVPPTFGQGTKVEIERTVAAPSVFIFPPSDEQLKSGTASVVCLLNNFYPREAKVQWKVDNALQSGNSQESVTEQDSKDSTYSLSSTLTLSKADYEKHKVYACEVTHQGLSSPVTKSFNRGEC | 147 % of control
2 | GpH7-A5/GpH7-B3 variant K326_19Q/GpL16-k0 (antibody, human IgG1, kappa, heterodimerized; mutation in the B3 H chain only; label printed K326_190, read as K326_19Q; also called He Ab K326_19Q) heavy 1: not shown heavy 2: not shown light: DIVMTQSPLSLPVTPGEPASISCQASESLVHSNRNTYLHWYLQKPGQSPQLLIYKVSNRFSGVPDRFSGSGSGTDFTLKISRVEAEDVGVYYCSQNTHVPPTFGQGTKVEIERTVAAPSVFIFPPSDEQLKSGTASVVCLLNNFYPREAKVQWKVDNALQSGNSQESVTEQDSKDSTYSLSSTLTLSKADYEKHKVYACEVTHQGLSSPVTKSFNRGEC | 139 % of control
3 | GpH7-A5/GpH7-B3 variant I332_10E/GpL16-k0 (antibody, human IgG1, kappa, heterodimerized; mutation in the B3 H chain only; also called He Ab I332_10E) heavy 1: not shown heavy 2: not shown light: DIVMTQSPLSLPVTPGEPASISCQASESLVHSNRNTYLHWYLQKPGQSPQLLIYKVSNRFSGVPDRFSGSGSGTDFTLKISRVEAEDVGVYYCSQNTHVPPTFGQGTKVEIERTVAAPSVFIFPPSDEQLKSGTASVVCLLNNFYPREAKVQWKVDNALQSGNSQESVTEQDSKDSTYSLSSTLTLSKADYEKHKVYACEVTHQGLSSPVTKSFNRGEC | 142 % of control
4 | GpH7-A5/GpH7-B3 variant K326_08L/GpL16-k0 (antibody, human IgG1, kappa, heterodimerized; mutation in the B3 H chain only; also called He Ab K326_08L) heavy 1: not shown heavy 2: not shown light: DIVMTQSPLSLPVTPGEPASISCQASESLVHSNRNTYLHWYLQKPGQSPQLLIYKVSNRFSGVPDRFSGSGSGTDFTLKISRVEAEDVGVYYCSQNTHVPPTFGQGTKVEIERTVAAPSVFIFPPSDEQLKSGTASVVCLLNNFYPREAKVQWKVDNALQSGNSQESVTEQDSKDSTYSLSSTLTLSKADYEKHKVYACEVTHQGLSSPVTKSFNRGEC | 177 % of control
5 | GpH7-A5/GpH7-B3 variant K326_15Y/GpL16-k0 (antibody, human IgG1, kappa, heterodimerized; mutation in the B3 H chain only; also called He Ab K326_15Y) heavy 1: not shown heavy 2: not shown light: DIVMTQSPLSLPVTPGEPASISCQASESLVHSNRNTYLHWYLQKPGQSPQLLIYKVSNRFSGVPDRFSGSGSGTDFTLKISRVEAEDVGVYYCSQNTHVPPTFGQGTKVEIERTVAAPSVFIFPPSDEQLKSGTASVVCLLNNFYPREAKVQWKVDNALQSGNSQESVTEQDSKDSTYSLSSTLTLSKADYEKHKVYACEVTHQGLSSPVTKSFNRGEC | 159 % of control
6 | GpH7-A5/GpH7-B3 variant K334_07I/GpL16-k0 (antibody, human IgG1, kappa, heterodimerized; mutation in the B3 H chain only; also called He Ab K334_07I) heavy 1: not shown heavy 2: not shown light: DIVMTQSPLSLPVTPGEPASISCQASESLVHSNRNTYLHWYLQKPGQSPQLLIYKVSNRFSGVPDRFSGSGSGTDFTLKISRVEAEDVGVYYCSQNTHVPPTFGQGTKVEIERTVAAPSVFIFPPSDEQLKSGTASVVCLLNNFYPREAKVQWKVDNALQSGNSQESVTEQDSKDSTYSLSSTLTLSKADYEKHKVYACEVTHQGLSSPVTKSFNRGEC | 119 % of control
7 | GpH7-A5/GpH7-B3 variant K334_08L/GpL16-k0 (antibody, human IgG1, kappa, heterodimerized; mutation in the B3 H chain only; also called He Ab K334_08L) heavy 1: not shown heavy 2: not shown light: DIVMTQSPLSLPVTPGEPASISCQASESLVHSNRNTYLHWYLQKPGQSPQLLIYKVSNRFSGVPDRFSGSGSGTDFTLKISRVEAEDVGVYYCSQNTHVPPTFGQGTKVEIERTVAAPSVFIFPPSDEQLKSGTASVVCLLNNFYPREAKVQWKVDNALQSGNSQESVTEQDSKDSTYSLSSTLTLSKADYEKHKVYACEVTHQGLSSPVTKSFNRGEC | 106 % of control
8 | GpH7-A5/GpH7-B3 variant K326_14T/GpL16-k0 (antibody, human IgG1, kappa, heterodimerized; mutation in the B3 H chain only; also called He Ab K326_14T) heavy 1: not shown heavy 2: not shown light: DIVMTQSPLSLPVTPGEPASISCQASESLVHSNRNTYLHWYLQKPGQSPQLLIYKVSNRFSGVPDRFSGSGSGTDFTLKISRVEAEDVGVYYCSQNTHVPPTFGQGTKVEIERTVAAPSVFIFPPSDEQLKSGTASVVCLLNNFYPREAKVQWKVDNALQSGNSQESVTEQDSKDSTYSLSSTLTLSKADYEKHKVYACEVTHQGLSSPVTKSFNRGEC | 150 % of control
9 | GpH7-A5/GpH7-B3 variant K326_03V/GpL16-k0 (antibody, human IgG1, kappa, heterodimerized; mutation in the B3 H chain only; also called He Ab K326_03V) heavy 1: not shown heavy 2: not shown light: DIVMTQSPLSLPVTPGEPASISCQASESLVHSNRNTYLHWYLQKPGQSPQLLIYKVSNRFSGVPDRFSGSGSGTDFTLKISRVEAEDVGVYYCSQNTHVPPTFGQGTKVEIERTVAAPSVFIFPPSDEQLKSGTASVVCLLNNFYPREAKVQWKVDNALQSGNSQESVTEQDSKDSTYSLSSTLTLSKADYEKHKVYACEVTHQGLSSPVTKSFNRGEC | 175 % of control
10 | GpH7-A5/GpH7-B3 variant K326_20W/GpL16-k0 (antibody, human IgG1, kappa, heterodimerized; mutation in the B3 H chain only; also called He Ab K326_20W) heavy 1: not shown heavy 2: not shown light: DIVMTQSPLSLPVTPGEPASISCQASESLVHSNRNTYLHWYLQKPGQSPQLLIYKVSNRFSGVPDRFSGSGSGTDFTLKISRVEAEDVGVYYCSQNTHVPPTFGQGTKVEIERTVAAPSVFIFPPSDEQLKSGTASVVCLLNNFYPREAKVQWKVDNALQSGNSQESVTEQDSKDSTYSLSSTLTLSKADYEKHKVYACEVTHQGLSSPVTKSFNRGEC | 148 % of control
11 | GpH7-A5/GpH7-B3 variant K334_02A/GpL16-k0 (antibody, human IgG1, kappa, heterodimerized; mutation in the B3 H chain only; also called He Ab K334_02A) heavy 1: not shown heavy 2: not shown light: DIVMTQSPLSLPVTPGEPASISCQASESLVHSNRNTYLHWYLQKPGQSPQLLIYKVSNRFSGVPDRFSGSGSGTDFTLKISRVEAEDVGVYYCSQNTHVPPTFGQGTKVEIERTVAAPSVFIFPPSDEQLKSGTASVVCLLNNFYPREAKVQWKVDNALQSGNSQESVTEQDSKDSTYSLSSTLTLSKADYEKHKVYACEVTHQGLSSPVTKSFNRGEC | 108 % of control
